Where “and” joins values, the source holds several entries; their conditions need not be identical. Equal values may be shown once.
What was measured:
[1] = biological target: Sp^1–117-Hs^253–294 chimera•Gemin2 (Schizosaccharomyces pombe | human | not stated) (UniProt Q09808); assay: SEC-MALS; Superdex 200 10/300 GL, 0.5 ml/min, room temperature (20°C), 50 mM HEPES-NaOH pH 7.5, 250 mM NaCl, 5 mM DTT; self-association of the SMN•G2 unit, (SMN•G2)n
[2] = biological target: hsSMNΔ5(S262G)•Gemin2; assay: SEC-MALS; conditions: 20°C; peak concentration 0.3 µM; parent: 231 (188-454)
[3] = biological target: hsSMNΔ5(L260S)•Gemin2, Q16637;O14893; assay: SEC-MALS; conditions: 20°C; peak concentration 0.3 µM; parent: 231 (188-454)
[4] = biological target: hsSMNΔ5(M263T)•Gemin2, Q16637;O14893; assay: SEC-MALS; conditions: 20°C; peak concentration 0.5 µM; parent: 231 (188-454)
[5] = biological target: hsSMNΔ5(M263R)•Gemin2, Q16637;O14893; assay: SEC-MALS; conditions: 20°C; peak concentration 0.8 µM; parent: 231 (188-454)
[6] = biological target: hsSMNΔ5(S262I)•Gemin2; assay: SEC-MALS; conditions: 20°C; peak concentration 0.5 µM; parent: 231 (188-454)
[7] = biological target: hsSMNΔ5(G279C)•Gemin2; assay: SEC-MALS; conditions: 20°C; peak concentration 0.5 µM; parent: 231 (188-454)
[8] = biological target: spSMN-GCN4(IL) chimera•Gemin2 (Schizosaccharomyces pombe | S. cerevisiae) (UniProt P0CU08); assay: SEC-MALS + AUC + other: SAXS; spSMN-GCN4 fusions in complex with Gemin2; SEC-MALS, SV-AUC and SAXS named together
[9] = biological target: Ce^2–184-Sp^140–152 chimera•Gemin2 (Caenorhabditis elegans | Schizosaccharomyces pombe | not stated) (UniProt Q09808); assay: SEC-MALS; Superdex 200 10/300 GL, 0.5 ml/min, room temperature (20°C), 50 mM HEPES-NaOH pH 7.5, 250 mM NaCl, 5 mM DTT; self-association of the SMN•G2 unit, (SMN•G2)n
[10] = biological target: SMN (SMN•Gemin2 dimer) (Schizosaccharomyces pombe) (UniProt Q09808); conditions: cited from earlier work
[11] = biological target: hsSMNΔ5(G275S)•Gemin2 (UniProt O14893); assay: SEC-MALS; conditions: 20°C; peak concentration 0.5 µM; parent: 231 (188-454)
[12] = biological target: hsSMNΔ5(Y272C)•Gemin2, Q16637;O14893; assay: SEC-MALS; conditions: 20°C; peak concentration 0.8 µM; parent: 231 (188-454)
[13] = biological target: hsSMNΔ5(S266P)•Gemin2; assay: SEC-MALS; conditions: 20°C; peak concentration 0.2 µM; parent: 231 (188-454)

Sequence of spSMN-GCN4(IL) chimera•Gemin2 (P0CU08 whole entry, looked up, change not shown): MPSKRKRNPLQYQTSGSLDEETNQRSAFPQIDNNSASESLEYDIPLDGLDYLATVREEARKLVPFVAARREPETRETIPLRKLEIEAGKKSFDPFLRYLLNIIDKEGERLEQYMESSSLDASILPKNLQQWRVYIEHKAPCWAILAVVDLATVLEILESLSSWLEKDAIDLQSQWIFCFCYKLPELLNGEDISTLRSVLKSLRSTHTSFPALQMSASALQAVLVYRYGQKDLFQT
Sequence of hsSMNΔ5•Gemin2 complex (from UniProt O14893) M263R (Q16637 whole entry M263R, stated change not applied): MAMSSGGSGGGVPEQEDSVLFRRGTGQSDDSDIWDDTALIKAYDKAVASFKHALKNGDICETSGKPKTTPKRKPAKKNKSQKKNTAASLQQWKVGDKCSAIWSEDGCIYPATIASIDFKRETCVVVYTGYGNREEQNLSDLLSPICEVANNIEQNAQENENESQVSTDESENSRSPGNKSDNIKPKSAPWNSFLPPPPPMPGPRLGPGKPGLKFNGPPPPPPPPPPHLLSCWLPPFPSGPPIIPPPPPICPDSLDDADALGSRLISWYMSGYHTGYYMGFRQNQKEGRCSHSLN
Sequence of hsSMNΔ5•Gemin2 complex (from UniProt O14893) M263R (O14893 12-280, stated change not applied): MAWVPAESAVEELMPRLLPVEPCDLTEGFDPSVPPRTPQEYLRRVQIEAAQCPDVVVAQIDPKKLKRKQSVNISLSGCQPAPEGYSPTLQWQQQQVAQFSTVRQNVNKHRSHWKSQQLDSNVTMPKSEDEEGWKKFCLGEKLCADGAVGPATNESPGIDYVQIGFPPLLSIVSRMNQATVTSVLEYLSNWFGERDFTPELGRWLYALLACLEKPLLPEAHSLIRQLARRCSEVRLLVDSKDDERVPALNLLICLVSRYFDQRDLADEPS
Sequence of hsSMNΔ5•Gemin2 complex (from UniProt O14893) M263T (Q16637 whole entry M263T, stated change not applied): as the sequence (Q16637 whole entry M263R, stated change not applied) above, with R263T counted along it
Sequence of hsSMNΔ5•Gemin2 complex (from UniProt O14893) M263T (O14893 12-280, stated change not applied): as the sequence (O14893 12-280, stated change not applied) above
Sequence of SMN (SMN•Gemin2 dimer) (Q09808 whole entry): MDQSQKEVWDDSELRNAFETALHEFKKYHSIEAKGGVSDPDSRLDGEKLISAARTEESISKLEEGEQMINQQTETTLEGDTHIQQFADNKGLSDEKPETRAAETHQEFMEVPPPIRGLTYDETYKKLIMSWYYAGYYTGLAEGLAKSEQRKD
Sequence of hsSMNΔ5•Gemin2 complex (from UniProt O14893) S266P (O14893 whole entry, looked up, stated change not applied, one chain of several): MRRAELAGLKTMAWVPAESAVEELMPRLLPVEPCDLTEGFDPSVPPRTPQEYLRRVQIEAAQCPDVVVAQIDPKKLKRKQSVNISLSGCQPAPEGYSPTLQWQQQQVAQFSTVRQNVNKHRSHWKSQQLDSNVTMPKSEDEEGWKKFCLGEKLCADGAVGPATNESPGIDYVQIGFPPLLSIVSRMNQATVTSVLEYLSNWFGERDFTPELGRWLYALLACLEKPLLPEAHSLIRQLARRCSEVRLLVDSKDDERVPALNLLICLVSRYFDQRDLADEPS
Sequence of hsSMNΔ5(G275S)•Gemin2 (O14893 whole entry, looked up, stated change not applied): as the sequence (O14893 whole entry, looked up, stated change not applied, one chain of several) above
Sequence of hsSMNΔ5•Gemin2 complex (from UniProt O14893) S262I (O14893 whole entry, looked up, stated change not applied, one chain of several): as above
Sequence of hsSMNΔ5•Gemin2 complex (from UniProt O14893) G279C (O14893 whole entry, looked up, stated change not applied, one chain of several): as above
Sequence of hsSMNΔ5•Gemin2 complex (from UniProt O14893) S262G (O14893 whole entry, looked up, stated change not applied, one chain of several): as above
Sequence of hsSMNΔ5•Gemin2 complex (from UniProt O14893) G275S (O14893 whole entry, looked up, stated change not applied, one chain of several): as above
Sequence of hsSMNΔ5•Gemin2 complex (from UniProt O14893) Y272C (Q16637 whole entry Y272C, stated change not applied): as the sequence (Q16637 whole entry M263R, stated change not applied) above, with R263M, Y272C counted along it
Sequence of hsSMNΔ5•Gemin2 complex (from UniProt O14893) Y272C (O14893 12-280, stated change not applied): as the sequence (O14893 12-280, stated change not applied) above
Sequence of hsSMNΔ5•Gemin2 complex (from UniProt O14893) L260S (Q16637 whole entry L260S, stated change not applied): as the sequence (Q16637 whole entry M263R, stated change not applied) above, with L260S, R263M counted along it
Sequence of hsSMNΔ5•Gemin2 complex (from UniProt O14893) L260S (O14893 12-280, stated change not applied): as the sequence (O14893 12-280, stated change not applied) above

Sp^1–117-Hs^253–294 chimera•Gemin2 (from UniProt Q09808 1-117; Q16637 253-294) (complex)
stoichiometry N [1]: 4 and 8

hsSMNΔ5•Gemin2 complex (from UniProt O14893) S262G
other: SEC-MALS Mw [2]: 275

hsSMNΔ5•Gemin2 complex (from UniProt O14893) L260S
other: SEC-MALS Mw [3]: 124

hsSMNΔ5•Gemin2 complex (from UniProt O14893) M263T
other: SEC-MALS Mw [4]: 115

hsSMNΔ5•Gemin2 complex (from UniProt O14893) M263R
other: SEC-MALS Mw [5]: 113

hsSMNΔ5•Gemin2 complex (from UniProt O14893) S262I
other: SEC-MALS Mw [6]: 306

hsSMNΔ5•Gemin2 complex (from UniProt O14893) G279C
other: SEC-MALS Mw [7]: 586

spSMN-GCN4(IL) chimera•Gemin2 (from UniProt P0CU08 1-235) (complex)
stoichiometry N [8]: 2

Ce^2–184-Sp^140–152 chimera•Gemin2 (from UniProt Q09808 140-152) (complex)
stoichiometry N [9]: 2

SMN (SMN•Gemin2 dimer) (from UniProt Q09808)
Kd [10]: 1000 nM

hsSMNΔ5•Gemin2 complex (from UniProt O14893) G275S
other: SEC-MALS Mw [11]: 58

hsSMNΔ5•Gemin2 complex (from UniProt O14893) Y272C
other: SEC-MALS Mw [12]: 78

hsSMNΔ5•Gemin2 complex (from UniProt O14893) S266P
other: SEC-MALS Mw [13]: 99

From publication PMC8287954
